Test results reported in patent publication US20250101091A1 (Eli Lilly, published 2025).

Experiments:
[1] = target: T1, Cleaved rat epiregulin (rat, UniProt Q9Z0L5 56-101); experiment: MSD-SET solution equilibrium titration, 37 C, pH 7.4
Description: (§1) An MSD SI6000 instrument (Meso Scale Discovery, Rockville, MD) is used for reading MSD plates. MSD assay plates are prepared as follows. A multi-array 96-well plate (Meso Scale Discovery, P/N L15XA-3) is coated overnight at 2-8° C. with 30 μl of a 1 μg/ml solution of a monomeric Fc-human epiregulin fusion in PBS. Plates are washed 3× in PBST following coating, then blocked for 1 hour at room temperature with shaking in 3% Blocker A (diluted in PBS from 5% Blocker A, Meso Scale Discovery, P/N R93AA-1).
(§2) SET samples are prepared in 1% Blocker A at pH 6.0 and at pH 7.4. Antibody is diluted to either 20 and 200 μM (pH 7.4) or 200 μM and 2 nM (pH 6.0). Epiregulin is serially diluted for a total of 12 dilutions centered around 2× the antibody concentration. This is accomplished by using starting concentrations of 10 and 100 nM (pH 7.4) or 100 nM and 1000 nM (pH 6.0) which are then 10× diluted once, 2× serially diluted 9 times, and then 10× diluted for the final dilution. Epiregulin titrations and fixed concentration antibody solutions are combined 1:1 to prepare the SET solutions. SET solutions are incubated at 37° C. for approximately 96 hours to allow binding to reach equilibrium. […] The plate is then washed 3× with PBST, then 100 μl of 1× Read Buffer T (diluted in water from 4× Read Buffer T, Meso Scale Discovery, P/N R93AA-1) is added before reading the plate. […]

[2] = target: T2, human Epigen (human, UniProt Q6UW88 53-104, limits assumed); experiment: ELISA: biotinylated ligand (20 nM) captured on neutravidin plate, antibody titrated 1:3, anti-human kappa-AP detection, OD405 [panel A]
T2 construct: Bought reagent, biotinylated in the ELISA; also called EPGN
Description: (§3) ELISA assays can be run as follows. […] After blocking, plates are washed 3 times with PBS plus 0.05% Tween20 to remove residual blocking buffer. […] Ligands are transferred to blocked assay plate and incubated at room temperature for 1 hour. The assay plate is washed 3 times with PBS plus 0.05% Tween20. […] The assay plate is washed 3 times with PBS plus 0.05% Tween20. […] The assay plate is washed 3 times with PBS plus 0.05% Tween20.

[3] = target: T3, EGF (human, UniProt P01133 971-1023); experiment: as above
T3 construct: Bought reagent, biotinylated in the ELISA; also called epidermal growth factor
Description: as §3

[4] = target: T4, Betacellulin (human, UniProt P35070 32-111); experiment: as above
T4 construct: Bought reagent, biotinylated in the ELISA; also called BTC
T4 sequence (looked up): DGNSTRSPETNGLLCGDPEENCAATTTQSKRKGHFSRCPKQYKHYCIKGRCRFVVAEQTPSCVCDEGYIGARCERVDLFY
Description: as §3

[5] = target: T5, HB-EGF (human, UniProt Q99075 63-148); experiment: as above
T5 construct: Bought reagent, biotinylated in the ELISA
Description: as §3

[6] = target: T6, TGFα (human, UniProt P01135 40-89); experiment: as above
T6 construct: Bought reagent, biotinylated in the ELISA; also called TGFA; transforming growth factor alpha
Description: as §3

[7] = target: T7, Amphiregulin (human, UniProt P15514 101-198); experiment: as above
T7 construct: Bought reagent, biotinylated in the ELISA; also called AREG
T7 sequence (looked up): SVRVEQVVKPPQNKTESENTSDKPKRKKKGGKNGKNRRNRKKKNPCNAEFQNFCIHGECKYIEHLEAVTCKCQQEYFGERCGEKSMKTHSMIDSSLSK
Description: as §3

[8] = target: T1, Cleaved rat epiregulin; experiment: MSD-SET solution equilibrium titration, 37 C, pH 6.0
Description: as §1, §2

[9] = target: T1, Cleaved rat epiregulin; experiment: cell-based or functional assay

Kd [1]: 0.0302 nM
binding result [2]: no binding (tested: 10 ug/mL)
binding result [3]: no binding (tested: 10 ug/mL)
binding result [4]: no binding (tested: 10 ug/mL)
binding result [5]: no binding (tested: 10 ug/mL)
binding result [6]: no binding (tested: 10 ug/mL)
binding result [7]: no binding (tested: 10 ug/mL)
Kd [8]: 0.286 nM
IC50, neutralization of epiregulin induced luciferase reporter activity in C166-AP1-Luciferase cells [9]: 2.5 nM
B1: Antibody 1 (antibody, human IgG4 S228P, kappa, F234A L235A, V domains shown)
VH: QVQLQESGPGLVKPSETLSLTCTVSGGSISSYYWSWIRQPAGKGLEWIGRIYPSGNTNYNPSLKSRVTISVDTSKNQFSLKLSSVTAADTAVYYCARGGLVMDVWGQGTLVTVSS
VL: EIVLTQSPGTLSLSPGERATLSCRASQSVEFSYLAWYQQKPGQAPRLLIYGASSRATGIPDRFSGSGSGTDFTLTISRLEPEDFAVYYCHQYGTNPFTFGQGTKVEIKR
notes: Fully human IgG4 (S228P, F234A/L235A by EU index, C-terminal Lys deleted), kappa light chain
